Our source for the stoichiometry N values is publication PMC11324310.

For the experiment, the target named is C-t FLAG-tagged WT-RELN (mouse) (UniProt Q60841). The experiment is described as follows: immunoblot in non-reducing conditions (SDS-PAGE); culture media of HEK293T cells coexpressing FLAG-WT-RELN and monoallelic variants; non-reducing conditions. On the technique in general: Immunoblotting shows a protein as a band on a membrane.

The substance C-t FLAG-tagged WT-RELN, Q60841 27-3461 had a stoichiometry N of 2.

In general, stoichiometry N refers to a count of units in the complex or per binding partner.
